The source of these data is US20200339967, “CAS12C COMPOSITIONS AND METHODS OF USE” (The Regents of the University of California, published 2020).

The target in data set [1] is T1, Cas12c_1 (C2c3_1).
T1 chain: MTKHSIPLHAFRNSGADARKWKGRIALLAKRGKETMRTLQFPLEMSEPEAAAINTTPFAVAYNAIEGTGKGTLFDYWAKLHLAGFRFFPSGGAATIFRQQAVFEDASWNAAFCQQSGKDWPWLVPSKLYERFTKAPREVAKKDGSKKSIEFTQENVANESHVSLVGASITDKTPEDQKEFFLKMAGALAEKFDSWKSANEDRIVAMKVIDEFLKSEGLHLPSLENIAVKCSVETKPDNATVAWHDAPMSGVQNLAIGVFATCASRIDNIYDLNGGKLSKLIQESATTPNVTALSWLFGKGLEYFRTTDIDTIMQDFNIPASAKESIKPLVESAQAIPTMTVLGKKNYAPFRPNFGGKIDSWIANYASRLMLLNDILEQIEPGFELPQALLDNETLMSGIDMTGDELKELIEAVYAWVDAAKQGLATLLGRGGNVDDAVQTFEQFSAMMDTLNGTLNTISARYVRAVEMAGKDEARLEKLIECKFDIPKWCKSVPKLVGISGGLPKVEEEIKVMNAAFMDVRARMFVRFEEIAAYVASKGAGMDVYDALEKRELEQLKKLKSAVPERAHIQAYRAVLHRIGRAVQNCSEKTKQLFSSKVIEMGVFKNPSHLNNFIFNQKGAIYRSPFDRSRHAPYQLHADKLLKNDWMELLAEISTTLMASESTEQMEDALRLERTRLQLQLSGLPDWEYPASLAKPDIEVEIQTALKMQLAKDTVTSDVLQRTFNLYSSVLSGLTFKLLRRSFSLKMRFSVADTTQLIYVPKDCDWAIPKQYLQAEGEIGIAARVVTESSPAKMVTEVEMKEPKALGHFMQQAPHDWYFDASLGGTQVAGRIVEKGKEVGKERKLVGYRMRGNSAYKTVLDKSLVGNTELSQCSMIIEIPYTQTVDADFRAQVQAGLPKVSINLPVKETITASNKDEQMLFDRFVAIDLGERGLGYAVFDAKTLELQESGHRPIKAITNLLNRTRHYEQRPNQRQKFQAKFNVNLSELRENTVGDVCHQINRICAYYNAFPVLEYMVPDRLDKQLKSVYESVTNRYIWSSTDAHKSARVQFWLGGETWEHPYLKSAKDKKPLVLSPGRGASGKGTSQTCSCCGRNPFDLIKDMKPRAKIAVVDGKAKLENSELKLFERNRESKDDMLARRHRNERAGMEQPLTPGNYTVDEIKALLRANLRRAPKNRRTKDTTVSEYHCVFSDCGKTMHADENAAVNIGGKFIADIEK
In words: pulldown; trancRNA co-purified with Cas12c and guide RNA; long vs short form not distinguished in text.

Data set [2] has as its target T1, Cas12c_1 (C2c3_1). Nature of the data set: pulldown; trancRNA co-purified with Cas12c and guide RNA; RNA sequencing and urea-PAGE; long vs short form not distinguished in text. From the text:
FIG. 3. The Cas12c CRISPR/Cas locus (for the Cas12c_1 protein) was transferred to and expressed in E. coli. Results from the RNA mapping of the Cas12c locus are presented (Top). In addition, the Cas12c protein was tagged and purified, and the RNA that was associated with the protein was sequenced, and results from the RNA mapping are presented (bottom). Both mapping results indicated the existence of a highly transcribed non-coding transcript adjacent to the Cas1-encoding sequence but on the opposite side of the Cas1-encoding sequence as the CRISPR array (Small repeating aligned arrows represent the repeats of the CRISPR array). The highly transcribed noncoding RNA is not complementary to the directed repeat as are transactivating CRISPR RNAs (tracrRNA). The transactivating noncoding RNA is referred herein as “trancRNA”.
FIG. 4. RNAs that pulled down (co-purified) with the Cas12c protein were run on urea-PAGE gels, confirming the presence of guide RNA and trancRNA.

B1: Cas12c_1 trancRNA (short) (ssRNA)
RNA: AUACCACCCGUGCAUUUCUGGAUCAAUGAUCCGUACCUCAAUGUCCGGGCGCGCAGCUAGAGCGACCUGAAAUCU
Take B1: the binding result in data set [1] was “binds”.

B2: Cas12c_1 trancRNA (long) (ssRNA)
RNA: AUACCACCCGUGCAUUUCUGGAUCAAUGAUCCGUACCUCAAUGUCCGGGCGCGCAGCUAGAGCGACCUGAAAUCUGCACGAAAACCGGCGAAAGCCGGUUUUUUGU
On to B2, for which the binding result in data set [2] is recorded as “binds”.
